Measured values taken from patent US8697651B2, “Amyloid β fibrillogenesis-inhibiting peptide” (Kagoshima University, priority 2006, dated 2014).
No end group written: not given here. *: point of attachment. Biotin = O=C1N[C@H]2[C@H](CS[C@H]2CCCCC(=O)*)N1

Legend:
Aβ1-42 peptide = target: T1, Aβ1-42 peptide (Homo sapiens, UniProt P05067); assay: Experiment of inhibition of amyloid β (Aβ1-42) fibrillogenesis, thioflavine T fluorescence; type: biochemical; conditions: peptide 1.65, 16.5, 33 nM added to 40 μM Aβ1-42 in 20 mM phosphate buffer pH 7.0; 0, 6, 24 hours; thioflavine T fluorescence 482 nm (FIG. 8)
T1 construct: the Aβ1-42 peptide diluted to 40 μM using 20 mM phosphate buffer
T1 sequence (P05067 672-713 limits assumed): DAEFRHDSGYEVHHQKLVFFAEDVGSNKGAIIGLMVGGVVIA
Procedure: Examples of a method for examining whether or not the obtained peptide has an activity of inhibiting amyloid β fibrillogenesis include the thioflavine T (ThT) method (H. Levine, III, Protein Science […]: 404-410 (1993)).
The synthesized peptide (TAT-B6-L1, B6-L1-TAT, TAT-B7-C15, or TAT-B7-S15) was added at varying concentrations (1.65 nM, 16.5 nM, and 33 nM) to the Aβ1-42 peptide diluted to 40 μM using 20 mM phosphate buffer, pH 7.0. At 0, 6, and 24 hours later, 10 μl of a sample was collected. After addition of 90 μl of 11 μM thioflavine T (Sigma)/phosphate buffer, fluorescence intensity at 482 nm generated by excitation light at 450 nm was measured using a multilabel plate counter Wallac 1420 ARVO sx (Perkin-Elmer; Wellesley, Mass.).
Results of measuring an activity of inhibiting Aβ1-42 fibrillogenesis by fusion peptides of TAT and B6-L1, B7-C15, or B7-S15 are shown in FIG. 8. The experiment of inhibition of fibrillogenesis was conducted according to the procedures described in the experiment of inhibition of fibrillogenesis above.

B6 scFv = assay: ELISA: binding of B6 scFv to plate-coated synthesized TAT fusion peptide; parameters: species or system human; conditions: peptide coated 200 ng/well; B6 scFv at varying concentrations (FIG. 7)
B6 scFv, sequence (as listed by the source): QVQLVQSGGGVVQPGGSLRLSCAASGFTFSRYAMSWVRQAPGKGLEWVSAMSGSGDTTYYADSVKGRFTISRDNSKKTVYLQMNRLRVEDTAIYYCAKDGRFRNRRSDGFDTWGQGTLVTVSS
B6 scFv, sequence (as listed by the source): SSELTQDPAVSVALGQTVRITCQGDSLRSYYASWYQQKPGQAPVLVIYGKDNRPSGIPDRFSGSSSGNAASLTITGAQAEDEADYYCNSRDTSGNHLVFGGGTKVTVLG
Excerpt: The B6-L1, B7-C15, and B7-S15 sequences having the TAT sequence fused at the amino terminus are referred to as TAT-B6-L1, TAT-B7-C15, and TAT-B7-S15, respectively. The B6-L1 sequence having the TAT sequence fused at the carboxyl terminus is referred to as B6-L1-TAT. The TAT sequence is a peptide sequence having the function of passing through the blood-brain barrier (P. Jarver and Ulo Langel, The use of cell-penetrating peptides as a tool for gene regulation, DDT, 9: 395-402, 2004). These peptides were biotinylated at their amino termini. Binding of the peptides was quantified using avidin labeled with an enzyme.
(5) The fusion peptide of TAT and B6-L1 was recognized by B6 scFv (FIG. 7). An ELISA plate was coated with the synthesized peptide TAT-B6-L1 or B6-L1-TAT under conditions of 200 ng/well. After addition of B6 scFv at varying concentrations, its binding activity was studied. A control peptide used was an unrelated peptide (GSGGGSCGYWRSEWGLCG (SEQ ID NO: 34)). […] (6) Activity of Inhibiting Aβ1-42 Fibrillogenesis by Fusion Peptide of TAT and B6-L1, B7-C15, or B7-S15

[1] = target: T2, Aβ oligomer or Aβ fibers (Aβ1-42) (Homo sapiens, UniProt P05067); assay: Experiment of precipitation of Aβ conformers (Aβ oligomer and Aβ fibers) by biotinylated peptide with streptavidin-magnet beads, Western blot; type: binding; conditions: Aβ1-42 40 μM, 1.5 hours after dissolution, peptide 1:1, supernatant vs pellet (FIG. 9)
T2 construct: the Aβ1-42 peptide diluted to 40 μM using 20 mM phosphate buffer
T2 sequence (P05067 672-713 limits assumed): as the sequence (P05067 672-713 limits assumed) above
Procedure: Aβ1-42 was dissolved at a concentration of 40 μM in 20 mM phosphate buffer, pH 7.0. At 1.5 hours later, the solution was reacted at 37° C. for 1 hour by the addition of the TAT-B6-L1 or TAT-B7-C15 peptide adjusted to 40 μM at a ratio of 1:1 by liquid volume (final concentration: Aβ [20 μM]/synthesized peptide [20 μM]). After reaction, an aliquot thereof was sampled as a sample before immunoprecipitation (“Before precipitation”), and the remaining sample was reacted with M-280 streptavidin-magnet beads (Dynal Biotech, Oslo, Norway) adjusted to 20 μg/μl on ice for 1 hour at a ratio of 1:1 by liquid volume (final concentration: Aβ [10 μM]/synthesized peptide [10 μM]/beads [10 μg/μl]). After reaction, the beads were precipitated using a magnet to obtain “Supernatant”. To the precipitated beads, PBS was added in a liquid volume equal to the collected supernatant to obtain “Pellet”. Each obtained sample was electrophoresed and subjected to Western blot analysis using anti-Aβ antibodies.
Aβ1-42 was dissolved at a concentration of 40 μM in 20 mM phosphate buffer, pH 7.0. At 1.5 hours later, the biotinylated TAT-B6-L1 or TAT-B7-C15 peptide was added thereto, and the conjugates were precipitated using streptavidin-magnet beads. Bands derived from Aβ oligomer, Aβ fibers, etc., could be confirmed before precipitation. Aβ oligomer or Aβ fibers were not confirmed in the supernatant from precipitation using the TAT-B6-L1 or TAT-B7-C15 peptide but could be confirmed in the pellet.

Row | Substance | activity of inhibiting Aβ1-42 fibrillogenesis (Aβ1-42 peptide) | binding of B6 scFv to the coated peptide (B6 scFv) | binding/precipitation of Aβ oligomer or Aβ fibers by the peptide [1]
1 | B6-L1-TAT: B6-L1 sequence having the TAT sequence fused at the carboxyl terminus; SEQ ID NO: 25 (Biotin-GMLDIFAPIRHVYGRKKRRQRRR) | demonstrated to have the activity of inhibiting fibrillogenesis | Binding reaction dependent on the amount of B6 scFv was confirmed | 
2 | GSGGGSCGYWRSEWGLCG [control peptide, reference compound] | exhibited no inhibiting activity |  | no confirmed precipitation reaction
3 | TAT-B6-L1: B6-L1 sequence having the TAT sequence fused at the amino terminus; SEQ ID NO: 24 (Biotin-YGRKKRRQRRRGMLDIFAPIRHV) | demonstrated to have the activity of inhibiting fibrillogenesis | Binding reaction dependent on the amount of B6 scFv was confirmed | Aβ oligomer or Aβ fibers formed on 1.5 hours after dissolution of Aβ1-42 bind to the TAT-B6-L1 or TAT-B7-C15 peptide
4 | TAT-B7-C15: B7-C15 sequence (glycine added to carboxyl terminus) having the TAT sequence fused at the amino terminus; SEQ ID NO: 26 (Biotin-YGRKKRRQRRRCYGTKPWMCG; cysteine pairing not given here) | demonstrated to have the activity of inhibiting fibrillogenesis |  | Aβ oligomer or Aβ fibers formed on 1.5 hours after dissolution of Aβ1-42 bind to the TAT-B6-L1 or TAT-B7-C15 peptide
5 | TAT-B7-S15: B7-S15 sequence having the TAT sequence fused at the amino terminus; SEQ ID NO: 27 (Biotin-YGRKKRRQRRRSYGTKPWMSG) | demonstrated to have the activity of inhibiting fibrillogenesis |  | 
